Test results: the Human Domainome abundance scans (Beltran et al. 2025)
± gives the uncertainty stated by the source.

Experiment: abundance fitness (aPCA) (normalised: wild type 0, dead -1); higher = more abundant; growth selection in yeast, the domain comes from the species named
Conditions: Homo sapiens

In order of falling abundance fitness:
1. Tyrosine-protein kinase Lck I67T, P06239  0.151 ± 0.16
2. Tyrosine-protein kinase Lck R89Q, P06239  0.125 ± 0.29
3. Tyrosine-protein kinase Lck I67Y, P06239  0.097 ± 0.25
4. Tyrosine-protein kinase Lck Q87R, P06239  -0.01 ± 0.077
5. Tyrosine-protein kinase Lck H70Y, P06239  -0.029 ± 0.12
6. Tyrosine-protein kinase Lck S75R, P06239  -0.064 ± 0.081
7. Tyrosine-protein kinase Lck I67W, P06239  -0.078 ± 0.11
8. Tyrosine-protein kinase Lck G78D, P06239  -0.088 ± 0.099
9. Tyrosine-protein kinase Lck S71D, P06239  -0.095 ± 0.14
10. Tyrosine-protein kinase Lck G81S, P06239  -0.096 ± 0.078
11. Tyrosine-protein kinase Lck I67F, P06239  -0.102 ± 0.16
12. Tyrosine-protein kinase Lck K99L, P06239  -0.125 ± 0.074
13. Tyrosine-protein kinase Lck I67E, P06239  -0.146 ± 0.11
14. Tyrosine-protein kinase Lck H76T, P06239  -0.17 ± 0.1
15. Tyrosine-protein kinase Lck I67C, P06239  -0.193 ± 0.12
16. Tyrosine-protein kinase Lck I67N, P06239  -0.206 ± 0.15
17. Tyrosine-protein kinase Lck I67R, P06239  -0.263 ± 0.097
18. Tyrosine-protein kinase Lck Q101H, P06239  -0.328 ± 0.16
19. Tyrosine-protein kinase Lck I67H, P06239  -0.353 ± 0.13
20. Tyrosine-protein kinase Lck I67S, P06239  -0.378 ± 0.08
21. Tyrosine-protein kinase Lck I67Q, P06239  -0.394 ± 0.14
22. Tyrosine-protein kinase Lck P74A, P06239  -0.414 ± 0.1
23. Tyrosine-protein kinase Lck I67K, P06239  -0.442 ± 0.14
24. Tyrosine-protein kinase Lck I67A, P06239  -0.465 ± 0.1
25. Tyrosine-protein kinase Lck I67D, P06239  -0.506 ± 0.21
26. Tyrosine-protein kinase Lck I67G, P06239  -0.552 ± 0.079
27. Tyrosine-protein kinase Lck I67P, P06239  -0.607 ± 0.15
